Reference: patent publication US20190062389A1

Key:
[1] = biological target: HLA-A*02:06 molecule (product of HLA-A*02:06 gene) on RA2.6 cells (human); assay: flow cytometry, RA2.6 cells, peptide dilution series, BB7.2 staining
[2] = biological target: HLA-A*02:01 molecule (product of HLA-A*02:01 gene) on T2 cells (human); assay: flow cytometry, T2 cells with added b2m, peptide dilution series, BB7.2 staining
[3] = biological target: HLA-A*24:02 molecule (product of HLA-A*24:02 gene) on C1R-A24 cells (human); assay: flow cytometry, acid-stripped C1R-A24 cells with added b2m, peptide dilution series, 17A12 staining

In the case of SLTPQAFEF (modifications not checked) [GPC3-derived peptide … (SEQ ID NO: 5)], the Binding Experiment Data (log Kd) (log Kd (concentration unit not given)) [1] is reported as -4.52, the Binding Experiment Data (log Kd) (log Kd (concentration unit not given)) [2] is reported as -4.93 and the Binding Experiment Data (log Kd) (log Kd (concentration unit not given)) [3] is reported as -7.11.
